Paper PMC4137731, “C-Terminal Domain Swapping of SSB Changes the Size of the ssDNA Binding Site”

What was measured:
Details in all cases: protein: recombinant; tags: none (untagged); chain copies: 4; label: 5' 32P
KpSSB [1] = biological target: T1, KpSSB (Klebsiella pneumoniae subsp. pneumoniae …, UniProt A6TGW7 1-174); experiment: EMSA; monomer conc.; 1 complex; 20 mM Tris-HCl pH 8.0, 100 mM NaCl, 25°C 30 min, 1.7 nM DNA, protein 0-5000 nM; native 8% PAGE in TBE at 4°C
PaSSB [2] = biological target: T2, PaSSB (Pseudomonas aeruginosa PAO1, UniProt P40947 1-165); experiment: as above
PaSSB [3] = biological target: T2, PaSSB; experiment: EMSA; monomer conc.; 2 complexes; 20 mM Tris-HCl pH 8.0, 100 mM NaCl, 25°C 30 min, 1.7 nM DNA, protein 0-5000 nM; native 8% PAGE in TBE at 4°C
KpSSB [4] = biological target: T1, KpSSB; experiment: as above
StSSB [5] = biological target: T3, StSSB (Salmonella enterica serovar Typhimurium …, UniProt P0A2F6 1-176); experiment: as above
StSSB [6] = biological target: T3, StSSB; experiment: EMSA; monomer conc.; 1 complex; 20 mM Tris-HCl pH 8.0, 100 mM NaCl, 25°C 30 min, 1.7 nM DNA, protein 0-5000 nM; native 8% PAGE in TBE at 4°C
KpSSB [7] = biological target: T1, KpSSB; experiment: EMSA; no band shift up to 5000 nM; 20 mM Tris-HCl pH 8.0, 100 mM NaCl, 25°C 30 min, 1.7 nM DNA, protein 0-5000 nM; native 8% PAGE in TBE at 4°C

TTTTTTTTTTTTTTTTTTTTTTTTT (ssDNA) [dT25]
apparent K (half saturation) (KpSSB [1]): 200 ± 20 nM
apparent K (half saturation) (PaSSB [2]): 1700 ± 250 nM

B1: dT65 (ssDNA)
DNA: TTTTTTTTTTTTTTTTTTTTTTTTTTTTTTTTTTTTTTTTTTTTTTTTTTTTTTTTTTTTTTTTT
apparent K (half saturation) (PaSSB [3]): 550 ± 70 nM

TTTTTTTTTTTTTTTTTTTTTTTTTTTTTTTTTTT (ssDNA) [dT35]
apparent K (half saturation) (KpSSB [1]): 220 ± 30 nM
apparent K (half saturation) (PaSSB [2]): 950 ± 180 nM

B2: dT55 (ssDNA)
DNA: TTTTTTTTTTTTTTTTTTTTTTTTTTTTTTTTTTTTTTTTTTTTTTTTTTTTTTT
apparent K (half saturation) (KpSSB [4]): 100 ± 20 nM
apparent K (half saturation) (PaSSB [2]): 820 ± 90 nM

TTTTTTTTTTTTTTTTTTTTTTTTTTTTTTTTTTTTTTTTTTTTT (ssDNA) [dT45]
apparent K (half saturation) (StSSB [5]): 440 ± 60 nM
apparent K (half saturation) (KpSSB [1]): 100 ± 10 nM
apparent K (half saturation) (PaSSB [2]): 780 ± 160 nM

TTTTTTTTTTTTTTTTTTTTTTTTTTTTTT (ssDNA) [dT30]
apparent K (half saturation) (StSSB [6]): 420 ± 60 nM

TTTTTTTTTTTTTTTTTTTTTTTTTTTTTTTTTTTTTTTT (ssDNA) [dT40]
apparent K (half saturation) (StSSB [6]): 420 ± 80 nM

TTTTTTTTTTTTTTT (ssDNA) [dT15]
apparent K (half saturation) (StSSB [6]): 650 ± 120 nM

B3: dT60 (ssDNA)
DNA: TTTTTTTTTTTTTTTTTTTTTTTTTTTTTTTTTTTTTTTTTTTTTTTTTTTTTTTTTTTT
apparent K (half saturation) (KpSSB [4]): 100 ± 10 nM
apparent K (half saturation) (PaSSB [3]): 810 ± 110 nM

TTTTTTTTTTTTTTTTTTTTTTTTTTTTTTTTTTTTTTTTTTTTTTTTTT (ssDNA) [dT50]
apparent K (half saturation) (StSSB [5]): 440 ± 50 nM
apparent K (half saturation) (KpSSB [1]): 110 ± 20 nM

TTTTTTTTTTTTTTTTTTTT (ssDNA) [dT20]
apparent K (half saturation) (StSSB [6]): 450 ± 80 nM
binding result (KpSSB [7]): no binding
